Measured values from patent publication US20080015165A1, “NOVEL POLYPEPTIDE” (KYOWA HAKKO KOGYO CO., LTD., priority 1998, published 2008).

B1: Human Fuc-TIII: known human α1,3-fucosyltransferase, previously cloned, used for comparison (protein, UniProt P21217 1-361, looked up)
3-galactosyl-N-acetylglucosami …: MDPLGAAKPQWPWRRCLAALLFQLLVAVCFFSYLRVSRDDATGSPRAPSGSSRQDTTPTRPTLLILLRTWPFHIPVALSRCSEMVPGTADCHITADRKVYPQADMVIVHHWDIMSNPKSRLPPSPRPQGQRWIWFNLEPPPNCQHLEALDRYFNLTMSYRSDSDIFTPYGWLEPWSGQPAHPPLNLSAKTELVAWAVSNWKPDSARVRYYQSLQAHLKVDVYGRSHKPLPKGTMMETLSRYKFYLAFENSLHPDYITEKLWRNALEAWAVPVVLGPSRSNYERFLPPDAFIHVDDFQSPKDLARYLQELDKDHARYLSYFRWRETLRPRSFSWALDFCKACWKLQQESRYQTVRSIAAWFT
B2: Fuc-TV: known human α1,3-fucosyltransferase, previously cloned, expressed in Namalwa cells (protein, UniProt Q11128 1-374, looked up)
4-galactosyl-N-acetylglucosami …: MDPLGPAKPQWLWRRCLAGLLFQLLVAVCFFSYLRVSRDDATGSPRPGLMAVEPVTGAPNGSRCQDSMATPAHPTLLILLWTWPFNTPVALPRCSEMVPGAADCNITADSSVYPQADAVIVHHWDIMYNPSANLPPPTRPQGQRWIWFSMESPSNCRHLEALDGYFNLTMSYRSDSDIFTPYGWLEPWSGQPAHPPLNLSAKTELVAWAVSNWKPDSARVRYYQSLQAHLKVDVYGRSHKPLPKGTMMETLSRYKFYLAFENSLHPDYITEKLWRNALEAWAVPVVLGPSRSNYERFLPPDAFIHVDDFQSPKDLARYLQELDKDHARYLSYFHWRETLRPRSFSWALAFCKACWKLQQESRYQTVRSIAAWFT
B3: Human Fuc-TVI: known human α1,3-fucosyltransferase, previously cloned, used for comparison (protein, UniProt P51993 1-359, looked up)
4-galactosyl-N-acetylglucosami …: MDPLGPAKPQWSWRCCLTTLLFQLLMAVCFFSYLRVSQDDPTVYPNGSRFPDSTGTPAHSIPLILLWTWPFNKPIALPRCSEMVPGTADCNITADRKVYPQADAVIVHHREVMYNPSAQLPRSPRRQGQRWIWFSMESPSHCWQLKAMDGYFNLTMSYRSDSDIFTPYGWLEPWSGQPAHPPLNLSAKTELVAWAVSNWGPNSARVRYYQSLQAHLKVDVYGRSHKPLPQGTMMETLSRYKFYLAFENSLHPDYITEKLWRNALEAWAVPVVLGPSRSNYERFLPPDAFIHVDDFQSPKDLARYLQELDKDHARYLSYFRWRETLRPRSFSWALAFCKACWKLQEESRYQTRGIAAWFT
B4: Fuc-TVII: known human α1,3-fucosyltransferase, previously cloned, expressed in Namalwa cells (protein, UniProt Q11130 1-342, looked up)
Alpha-(1,3)-fucosyltransferase …: MNNAGHGPTRRLRGLGVLAGVALLAALWLLWLLGSAPRGTPAPQPTITILVWHWPFTDQPPELPSDTCTRYGIARCHLSANRSLLASADAVVFHHRELQTRRSHLPLAQRPRGQPWVWASMESPSHTHGLSHLRGIFNWVLSYRRDSDIFVPYGRLEPHWGPSPPLPAKSRVAAWVVSNFQERQLRARLYRQLAPHLRVDVFGRANGRPLCASCLVPTVAQYRFYLSFENSQHRDYITEKFWRNALVAGTVPVVLGPPRATYEAFVPADAFVHVDDFGSARELAAFLTGMNESRYQRFFAWRDRLRVRLFTDWRERFCAICDRYPHLPRSQVYEDLEGWFQA
B5: Mouse Fuc-TIV: known mouse α1,3-fucosyltransferase expressed from pCDM8-mFT4 for comparison (protein, UniProt Q11127 1-433, looked up)
Alpha-(1,3)-fucosyltransferase …: MAPARQELQHESRCRPSRTVDAWRAAVATRGRHMETPGYRRRTRCGGWGLPRSVSSLAAVGLLCTALTTFICWGQLPPLPWASPAPQRLVGVLLWWEPFRGRGGYPKSPPDCSLRFNISGCRLLTDRAAYGEAQAVLFHHRDLVKELHDWPPPWGARERTDKALVLRVFDDQEGAVTLTGKALETVGSRPPGQRWVWMNFESPSHTPGLRGLAKDLFNWTLSYRTDSDVFVPYGFLYSRSDPTEQPSGLGPQLARKRGLVAWVVSNWNEHQARVRYYHQLSRHVSVDVFGRTGPGRPVPAIGLLHTVARYKFYLAFENSRHVDYITEKLWRNAFLAGAVPVVLGPDRANYERFVPRGAFIHVDDFPNAASLAAYLLFLDRNVAVYRRYFRWRRSFAVHITSFWDEQWCRTCQAVQTSGDQPKSIHNLADWFQR

Key:
[1] = Enzyme activity for a poly-N-acetyllactosamine sugar chain, Namalwa cell extract, HPLC; type: biochemical; conditions: substrate S; for Production (%) P1 / Production (%) P2 / Production (%) P3: relative value, total of products P1, P2 and P3 by each enzyme = 100%
Excerpt: Using a poly-N-acetyllactosamine sugar chain, it was examined that to which GlcNAc in the sugar chains, human Fuc-TIX and 5 types of human α1,3-fucosyltransferase (Fuc-TIII, Fuc-TIV, Fuc-TV, Fuc-TVI, and Fuc-TVII) that had been cloned so far transferred fucose.
Control plasmid (pAMo) and the human Fuc-TIX expression plasmid pAMo-FT9 were introduced into Namalwa cells according to the method shown in Example 1 (3), thereby obtaining stable transformants.
Namalwa cells expressing each of the other 5 types of human α1,3-fucosyltransferases (Fuc-TIII, Fuc-TIV, Fuc-TV, Fuc-TVI, and Fuc-TVII) were obtained according to the previous report (Glycoconjugate J., 13, 802-812, Biochem. Biophys. Res. Commun., 237, 131-137, 1997).
The resultant transformants (about 1×10^7) were collected in microtubes (1.5 ml, manufactured by Eppendolf), followed by centrifugation at 550×g for 7 minutes to collect the cells.
The collected cells were washed with 0.9 ml of PBS. The washed cells were suspended in 100 μl of a solution which consisted of 20 mM HEPES (pH 7.2) and 1% TrironX-100, then allowed to stand at 4° C. for 10 minutes. Subsequently the cells were disrupted using a ultrasonicator (Bioruptor; manufactured by COSMO BIO CO., LTD.)
After disruption of the cells, each supernatant was obtained by centrifugation at 550×g for 7 minutes and used as an enzyme sample. A poly-N-acetyllactosamine sugar chain (Galβ1-4GlcNAcβ1-3Galβ1-4GlcNAcβ1-3Galβ1-4GlcNAc) consisting of 6 sugars was fluorescently labeled with 2-aminobenzamide to make a sugar chain (Galβ1-4GlcNAcβ1-3Galβ1-4GlcNAcβ1-3Galβ1-4GlcNAc-2AB: abbreviated as S in FIGS. 13 and 15, and table 3), which was used as a substrate
Florescent labeling was performed using a Signal™ 2-AB glycan labeling kit (manufactured by Oxford GlycoScience). A poly-N-acetyllactosamine sugar chain (Galβ1-4GlcNAcβ1-3Galβ1-4GlcNAcβ1-3Galβ1-4GlcNAc) was prepared according to WO98/03524.
Samples were allowed to react in 20 μl of an assay solution [50 mM cacodylate (pH 6.8), 5 mM ATP, 10 mM L-fucose, 75 μM […] (manufactured by SIGMA), 25 mM MnCl2, 15 μM fluorescently labeled sugar chain substrate, 6 μl of the cell lysate above] at 37° C. for 2 hours, followed by treatment at 100° C. for 3 minutes to stop the reaction. Next 200 μl of water was added to the samples, and the supernatant was obtained by centrifugation at 10,000×g for 5 minutes. Using an aliquot of the supernatant (10 μl), products were analyzed by HPLC under the following conditions.
HPLC: • Column—TSK-gel ODS-80TsQA column (4.6×250 mm; TOSOH CORPORATION) • Eluate—0.02 M ammonium acetate (pH 4.0) containing 7% methanol • Elution temperature—50° C. • Flow rate—1.0 ml/min. • Detection—Fluorescence spectrum photometer FB-920 (manufactured by JASCO Corporation) (excitation wavelength: 330 nm, radiation wavelength: 420 nm)

[2] = In vitro α1,3-fucosyltransferase activity, COS-1 cell lysate, pyridylaminated substrate, HPLC; type: biochemical; conditions: activity of human Fuc-TVI for α2,3-sialylLNnT taken as 100; 25 μM substrate, 2 hours at 37° C.; normalized to transcript amount
Method: Each α1,3-fucosyltransferase expression plasmid (15 μg) was introduced into 1×10^7 COS-1 cells.
This introduction was performed by electroporation method using a gene pulser (manufactured by Bio-Rad) according to the Bio-Rad's instructional manual attached thereto. At this time, 1 μg of a luciferase expression vector, which was constructed by inserting β-actin promoter into a Hind III site of a vector pSVOA/L [Experimental Medicine, 7, 96, (1989)] was co-introduced as an index of gene transfer efficiency.
After the gene introduction, COS-1 cells were dispensed into three dishes for cell culture with a diameter of 15 cm and then cultured for 48 hours.
The cells in the remaining two dishes were collected, suspended in a solution (20 mM HEPES (pH 7.4), 2% TrironX-100), then ultrasonicated for a short time period, thereby preparing cell lysate. The protein concentration of the cell lysate was measured using a micro BCA protein assay reagent kit (manufactured by PIERCE).
The enzymatic activities of luciferase and α1,3-fucosyltransferase were measured using the cell lysate. […]
Each of the substrates was allowed to react in assay solution with or without GDP-Fuc (sugar donator), then analyzed with HPLC. […]
The products were detected using a fluorescent spectrum photometer FP-920 (JASCO Corporation) at excitation wavelength of 320 nm and emission wavelength of 400 nm. […]

Molecule	Production (%) P1 [1] [%]	Production (%) P2 [1] [%]	Production (%) P3 [1] [%]	major product ([1]; extract of Namalwa cells expressing the enzyme)	Relative activity of α1,3-fucosyltransferases for substrate LNT [2]
B1	2.0	98.0	0.0		
B2	7.5	92.5	0.0		
B3	8.3	88.7	3.0		
B4	0.0	0.0	0.0	no product	
B5					0
